Reference: US20110263827A1 (AbbVie / Abbott, published 2011)

Tests used:
EGFR = biological target: T1, EGFR (UniProt P00533 25-645, limits assumed, biotinylated); assay: direct bind ELISA, N-term VD;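 also: antibody or DVD-Ig preparations bound to immobilized target antigen on ELISA plates, 1 h at room temperature, TMB detection read as absorbance at 450 nm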
T1 construct: ELISA antigen; construct not described

ErbB3 = biological target: T2, ErbB3 (UniProt P21860 20-643, limits assumed, biotinylated); assay: direct bind ELISA, C-term VD;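 also: ELISA with antibody or DVD-Ig preparations applied to target antigen-coated plates for 1 h at room temperature, TMB colour development, absorbance read at 450 nm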
T2 construct: ELISA antigen

Binder | EC50 (EGFR) | EC50 (ErbB3)
DVD769 (bispecific antibody, DVD-Ig; HC L, LC L; variable parts only) VH: QVQLQESGPGLVKPSQTLSLTCTVSGYSISSDFAWNWIRQPPGKGLEWMGYISYSGNTRYQPSLKSRITISRDTSKNQFFLKLNSVTAADTATYYCVTAGRGFPYWGQGTLVTVSSASTKGPSVFPLAPQVQLQQWGAGLLKPSETLSLTCAVYGGSFSGYYWSWIRQPPGKGLEWIGEINHSGSTNYNPSLKSRVTISVETSKNQFSLKLSSVTAADTAVYYCARDKWTWYFDLWGRGTLVTVSS VL: DIQMTQSPSSMSVSVGDRVTITCHSSQDINSNIGWLQQKPGKSFKGLIYHGTNLDDGVPSRFSGSGSGTDYTLTISSLQPEDFATYYCVQYAQFPWTFGGGTKLEIKRTVAAPSVFIFPPDIEMTQSPDSLAVSLGERATINCRSSQSVLYSSSNRNYLAWYQQNPGQPPKLLIYWASTRESGVPDRFSGSGSGTDFTLTISSLQAEDVAVYYCQQYYSTPRTFGQGTKVEIKR | 3.59 nM | 8.23 nM
DVD799 (bispecific antibody, DVD-Ig; HC L, LC S; variable parts only) VH: QVQLQESGPGLVKPSQTLSLTCTVSGYSISSDFAWNWIRQPPGKGLEWMGYISYSGNTRYQPSLKSRITISRDTSKNQFFLKLNSVTAADTATYYCVTAGRGFPYWGQGTLVTVSSASTKGPSVFPLAPQVQLQQWGAGLLKPSETLSLTCAVYGGSFSGYYWSWIRQPPGKGLEWIGEINHSGSTNYNPSLKSRVTISVETSKNQFSLKLSSVTAADTAVYYCARDKWTWYFDLWGRGTLVTVSS VL: DIQMTQSPSSMSVSVGDRVTITCHSSQDINSNIGWLQQKPGKSFKGLIYHGTNLDDGVPSRFSGSGSGTDYTLTISSLQPEDFATYYCVQYAQFPWTFGGGTKLEIKRTVAAPDIEMTQSPDSLAVSLGERATINCRSSQSVLYSSSNRNYLAWYQQNPGQPPKLLIYWASTRESGVPDRFSGSGSGTDFTLTISSLQAEDVAVYYCQQYYSTPRTFGQGTKVEIKR | 5.76 nM | 20 nM
DVD771 (bispecific antibody, DVD-Ig; HC L, LC L; variable parts only) VH: QVQLQESGPGLVKPSQTLSLTCTVSGYSISSDFAWNWIRQPPGKGLEWMGYISYSGNTRYQPSLKSRITISRDTSKNQFFLKLNSVTAADTATYYCVTAGRGFPYWGQGTLVTVSSASTKGPSVFPLAPEVQLVESGGGLVQPGGSLRLSCAASGFTFSIYSMNWVRQAPGKGLEWVSYISSSSSTIYYADSVKGRFTISRDNAKNSLYLQMNSLRDEDTAVYYCARDRGDFDAFDIWGQGTMVTVSS VL: DIQMTQSPSSMSVSVGDRVTITCHSSQDINSNIGWLQQKPGKSFKGLIYHGTNLDDGVPSRFSGSGSGTDYTLTISSLQPEDFATYYCVQYAQFPWTFGGGTKLEIKRTVAAPSVFIFPPDIQMTQSPSSLSASVGDRVTITCQASQDITNYLNWYQQKPGKAPKLLIYDASNLETGVPSRFSGSGSGTDFTFTISSLQPEDIATYNCQQCENFPITFGQGTRLEIKR | 4.43 nM | 1.38 nM
DVD801 (bispecific antibody, DVD-Ig; HC L, LC S; variable parts only) VH: QVQLQESGPGLVKPSQTLSLTCTVSGYSISSDFAWNWIRQPPGKGLEWMGYISYSGNTRYQPSLKSRITISRDTSKNQFFLKLNSVTAADTATYYCVTAGRGFPYWGQGTLVTVSSASTKGPSVFPLAPEVQLVESGGGLVQPGGSLRLSCAASGFTFSIYSMNWVRQAPGKGLEWVSYISSSSSTIYYADSVKGRFTISRDNAKNSLYLQMNSLRDEDTAVYYCARDRGDFDAFDIWGQGTMVTVSS VL: DIQMTQSPSSMSVSVGDRVTITCHSSQDINSNIGWLQQKPGKSFKGLIYHGTNLDDGVPSRFSGSGSGTDYTLTISSLQPEDFATYYCVQYAQFPWTFGGGTKLEIKRTVAAPDIQMTQSPSSLSASVGDRVTITCQASQDITNYLNWYQQKPGKAPKLLIYDASNLETGVPSRFSGSGSGTDFTFTISSLQPEDIATYNCQQCENFPITFGQGTRLEIKR | 3.91 nM | 3.28 nM
DVD787 (bispecific antibody, DVD-Ig; HC L, LC L; variable parts only) VH: QVQLQESGPGLVKPSQTLSLTCTVSGYSISSDFAWNWIRQPPGKGLEWMGYISYSGNTRYQPSLKSRITISRDTSKNQFFLKLNSVTAADTATYYCVTAGRGFPYWGQGTLVTVSSASTKGPSVFPLAPEVQLLESGGGLVQPGGSLRLSCAASGFTFSHYVMAWVRQAPGKGLEWVSSISSSGGWTLYADSVKGRFTISRDNSKNTLYLQMNSLRAEDTAVYYCTRGLKMATIFDYWGQGTLVTVSS VL: DIQMTQSPSSMSVSVGDRVTITCHSSQDINSNIGWLQQKPGKSFKGLIYHGTNLDDGVPSRFSGSGSGTDYTLTISSLQPEDFATYYCVQYAQFPWTFGGGTKLEIKRTVAAPSVFIFPPQSALTQPASVSGSPGQSITISCTGTSSDVGSYNVVSWYQQHPGKAPKLIIYEVSQRPSGVSNRFSGSKSGNTASLTISGLQTEDEADYYCCSYAGSSIFVIFGGGTKVTVLG | 3.78 nM | 14.4 nM
DVD817 (bispecific antibody, DVD-Ig; HC L, LC S; variable parts only) VH: QVQLQESGPGLVKPSQTLSLTCTVSGYSISSDFAWNWIRQPPGKGLEWMGYISYSGNTRYQPSLKSRITISRDTSKNQFFLKLNSVTAADTATYYCVTAGRGFPYWGQGTLVTVSSASTKGPSVFPLAPEVQLLESGGGLVQPGGSLRLSCAASGFTFSHYVMAWVRQAPGKGLEWVSSISSSGGWTLYADSVKGRFTISRDNSKNTLYLQMNSLRAEDTAVYYCTRGLKMATIFDYWGQGTLVTVSS VL: DIQMTQSPSSMSVSVGDRVTITCHSSQDINSNIGWLQQKPGKSFKGLIYHGTNLDDGVPSRFSGSGSGTDYTLTISSLQPEDFATYYCVQYAQFPWTFGGGTKLEIKRTVAAPQSALTQPASVSGSPGQSITISCTGTSSDVGSYNVVSWYQQHPGKAPKLIIYEVSQRPSGVSNRFSGSKSGNTASLTISGLQTEDEADYYCCSYAGSSIFVIFGGGTKVTVLG | 5.33 nM | 18.8 nM
DVD329 (bispecific antibody, DVD-Ig; HC S, LC S; variable parts only) VH: QVQLQESGPGLVKPSQTLSLTCTVSGYSISSDFAWNWIRQPPGKGLEWMGYISYSGNTRYQPSLKSRITISRDTSKNQFFLKLNSVTAADTATYYCVTAGRGFPYWGQGTLVTVSSASTKGPEVQLVESGGGLVQPGGSLRLSCAASGFTFSIYSMNWVRQAPGKGLEWVSYISSSSSTIYYADSVKGRFTISRDNAKNSLYLQMNSLRDEDTAVYYCARDRGDFDAFDIWGQGTMVTVSS VL: DIQMTQSPSSMSVSVGDRVTITCHSSQDINSNIGWLQQKPGKSFKGLIYHGTNLDDGVPSRFSGSGSGTDYTLTISSLQPEDFATYYCVQYAQFPWTFGGGTKLEIKRTVAAPDIQMTQSPSSLSASVGDRVTITCQASQDITNYLNWYQQKPGKAPKLLIYDASNLETGVPSRFSGSGSGTDFTFTISSLQPEDIATYNCQQCENFPITFGQGTRLEIKR | 3.82 nM | 481 nM
DVD327 (bispecific antibody, DVD-Ig; HC S, LC S; variable parts only) VH: QVQLQESGPGLVKPSQTLSLTCTVSGYSISSDFAWNWIRQPPGKGLEWMGYISYSGNTRYQPSLKSRITISRDTSKNQFFLKLNSVTAADTATYYCVTAGRGFPYWGQGTLVTVSSASTKGPQVQLQQWGAGLLKPSETLSLTCAVYGGSFSGYYWSWIRQPPGKGLEWIGEINHSGSTNYNPSLKSRVTISVETSKNQFSLKLSSVTAADTAVYYCARDKWTWYFDLWGRGTLVTVSS VL: DIQMTQSPSSMSVSVGDRVTITCHSSQDINSNIGWLQQKPGKSFKGLIYHGTNLDDGVPSRFSGSGSGTDYTLTISSLQPEDFATYYCVQYAQFPWTFGGGTKLEIKRTVAAPDIEMTQSPDSLAVSLGERATINCRSSQSVLYSSSNRNYLAWYQQNPGQPPKLLIYWASTRESGVPDRFSGSGSGTDFTLTISSLQAEDVAVYYCQQYYSTPRTFGQGTKVEIKR | 3.98 nM | 485 nM
